Measured values as given in patent publication US7732151B2, “Use of IRS-polypeptides for identifying of pharmaceutically active compounds” (Sanofi-Aventis Deutschland GmbH, priority 2003, dated 2010).
Values belong to the molecule of their own block, whether it stands above or below them.

Legend:
[1] = target: T1, rat liver insulin receptor (WGA-IR) (Rattus norvegicus, UniProt P15127); experiment: ALPHAScreen: phosphorylation of biotinylated IRS-1 fragment by wheat germ lectin affinity-purified rat liver insulin receptor; type: biochemical; conditions: 85 nM biotinylated IRS fragment, 50 μM ATP, 30° C. for 30 minutes, p-Tyr antibody detection, FIG. 4
T1 construct: tissue Sigma (named as alternative source) 70543; host or cells: rat liver
T1 sequence (P15127 27-759 limits assumed): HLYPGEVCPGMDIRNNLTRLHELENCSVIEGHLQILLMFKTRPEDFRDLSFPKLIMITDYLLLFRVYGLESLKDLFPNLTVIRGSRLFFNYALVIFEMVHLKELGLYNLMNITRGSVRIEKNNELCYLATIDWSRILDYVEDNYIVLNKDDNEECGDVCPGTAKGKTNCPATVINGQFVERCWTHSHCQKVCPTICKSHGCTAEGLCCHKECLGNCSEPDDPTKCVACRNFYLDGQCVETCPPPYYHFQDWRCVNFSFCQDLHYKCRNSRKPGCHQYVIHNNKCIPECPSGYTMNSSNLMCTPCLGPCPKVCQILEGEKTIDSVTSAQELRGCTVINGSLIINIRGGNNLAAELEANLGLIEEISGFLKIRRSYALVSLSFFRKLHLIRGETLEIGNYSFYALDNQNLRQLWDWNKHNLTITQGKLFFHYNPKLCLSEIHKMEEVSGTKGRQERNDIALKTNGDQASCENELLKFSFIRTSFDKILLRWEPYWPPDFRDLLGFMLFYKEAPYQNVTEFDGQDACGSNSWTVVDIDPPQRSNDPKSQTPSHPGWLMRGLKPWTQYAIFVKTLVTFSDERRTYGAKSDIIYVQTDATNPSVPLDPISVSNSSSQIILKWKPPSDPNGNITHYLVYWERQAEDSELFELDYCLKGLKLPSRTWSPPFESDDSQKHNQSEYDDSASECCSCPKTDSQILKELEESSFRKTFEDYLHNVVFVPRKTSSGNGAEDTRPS
T1 sequence (P15127 764-1383 partner limits assumed): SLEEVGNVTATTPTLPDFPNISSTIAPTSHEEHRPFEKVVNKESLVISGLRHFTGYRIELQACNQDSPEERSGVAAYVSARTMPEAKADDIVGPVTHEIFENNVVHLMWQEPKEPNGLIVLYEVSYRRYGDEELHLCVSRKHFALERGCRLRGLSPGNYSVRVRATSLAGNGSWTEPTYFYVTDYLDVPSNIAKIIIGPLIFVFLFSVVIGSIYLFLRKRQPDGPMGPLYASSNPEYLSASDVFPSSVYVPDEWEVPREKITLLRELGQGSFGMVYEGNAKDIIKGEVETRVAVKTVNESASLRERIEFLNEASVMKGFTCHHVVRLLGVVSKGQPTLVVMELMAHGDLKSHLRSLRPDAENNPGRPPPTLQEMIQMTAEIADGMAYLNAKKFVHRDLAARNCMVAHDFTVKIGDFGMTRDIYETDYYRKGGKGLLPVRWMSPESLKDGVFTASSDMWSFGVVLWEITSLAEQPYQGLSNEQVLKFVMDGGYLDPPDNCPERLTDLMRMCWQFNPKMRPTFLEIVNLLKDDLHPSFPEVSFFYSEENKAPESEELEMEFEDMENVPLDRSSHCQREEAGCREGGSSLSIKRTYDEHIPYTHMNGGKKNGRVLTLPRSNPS
Description: The measurement of the kinase activity using ALPHAScreen™ from Perkin-Elmer Life Sciences, which is particularly expedient for the purposes of the present invention, takes place for example by the kinase to be investigated phosphorylating a biotinylated peptide in a biochemical mixture in the presence of ATP. The phosphorylated peptide is then bound by a specific anti-phospho antibody to which protein A-conjugated acceptor beads or provided with suitable second antibodies are coupled. The same mixture contains streptavidin-coupled donor beads which bind the biotin portion of the peptide. The binding to the peptide brings acceptor beads and donor beads in direct vicinity, starting a cascade of chemical reactions which generate a highly amplified, detectable luminescence signal: a photosensitizer in the donor bead is excited by laser excitation to convert oxygen in the surroundings into a singlet status. The singlet oxygen then diffuses to the acceptor bead where it excites a thioxene derivative which thus emits a chemiluminescence with a wavelength of 370 nm, which in turn excites further fluorophores in the acceptor bead to luminesce light with wavelengths of 520 to 620 nm. Since excitation of the fluorophores by singlet oxygen takes place only when donor bead and acceptor bead are in close vicinity, only then are detectable signals generated. […]

[2] = kinetic constant as enzyme substrate; cited from earlier work

EC50 [1]: 10 nM
Molecule: insulin: human insulin, peptide hormone, commercially available from Sigma under order number I-9266

B1: IRS-1: insulin receptor substrate 1 polypeptide used as kinase substrate (protein, listed as Homo sapiens)
chain: MASPPESDGFSDVRKVGYLRKPKSMHKRFFVLRAASEAGGPARLEYYENEKKWRHKSSAPKRSIPLESCFNINKRADSKNKHLVALYTRDEHFAIAADSEAEQDSWYQALLQLHNRAKGHHDGAAALGAGGGGGSCSGSSGLGEAGEDLSYGDVPPGPAFKEVWQVILKPKGLGQTKNLIGIYRLCLTSKTISFVKLNSEAAAVVLQLMNIRRCGHSENFFFIEVGRSAVTGPGEFWMQVDDSVVAQNMHETILEAMRAMSDEFRPRSKSQSSSNCSNPISVPLRRHHLNNPPPSQVGLTRRSRTESITATSPASMVGGKPGSFRVRASSDGEGTMSRPASVDGSPVSPSTNRTHAHRHRGSARLHPPLNHSRSIPMPASRCSPSATSPVSLSSSSTSGHGSTSDCLFPRRSSASVSGSPSDGGFISSDEYGSSPCDFRSSFRSVTPDSLGHTPPARGEEELSNYICMGGKGPSTLTAPNGHYILSRGGNGHRCTPGTGLGTSPALAGDEAASAADLDNRFRKRTHSAGTSPTITHQKTPSQSSVASIEEYTEMMPAYPPGGGSGGRLPGHRHSAFVPTRSYPEEGLEMHPLERRGGHHRPDSSTLHTDDGYMPMSPGVAPVPSGRKGSGDYMPMSPKSVSAPQQIINPIRRHPQRVDPNGYMMMSPSGGCSPDIGGGPSSSSSSSNAVPSGTSYGKLWTNGVGGHHSHVLPHPKPPVESSGGKLLPCTGDYMNMSPVGDSNTSSPSDCYYGPEDPQHKPVLSYYSLPRSFKHTQRPGEPEEGARHQHLRLSTSSGRLLYAATADDSSSSTSSDSLGGGYCGARLEPSLPHPHHQVLQPHLPRKVDTAAQTNSRLARPTRLSLGDPKASTLPRAREQQQQQQPLLHPPEPKSPGEYVNIEFGSDQSGYLSGPVAFHSSPSVRCPSQLQPAPREEETGTEEYMKMDLGPGRRAAWQESTGVEMGRLGPAPPGAASICRPTRAVPSSRGDYMTMQMSCPRQSYVDTSPAAPVSYADMRTGIAAEEVSLPRATMAAASSSSAASASPTGPQGAAELAAHSSLLGGPQGPGGMSAFTRVNLSPNRNQSAKVIRADPQGCRRRHSSETFSSTPSATRVGNTVPFGAGAAVGGGGGSSSSSEDVKRHSSASFENVWLRPGELGGAPKEPAKLCGAAGGLENGLNYIDLDLVKDFKQCPQECTPEPQPPPPPPPHQPLGSGESSSTRRSSEDLSAYASISFQKQPEDRQ
Km [2]: 19 µM
